The source of these data is patent publication US7304146B2, “Fluorogenic kinase assays and substrates” (Applera Corporation, priority 2004, dated 2007).

The conditions of data set [1]: side chain (imidazole of histidine; cysteine); cited from earlier work.
A further data set deals with protein kinase Akt3/PKBγ (Homo sapiens, UniProt Q9Y243). The data set can be described thus: Fluorogenic kinase assay with Akt3/PKBγ, rate of reaction, two vs one hydrophobic moiety. In kind it is biochemical. The settings on record: compared with one-hydrophobic-moiety substrate C15OOOK(dye2)RPRTSSF-NH2; substrates 8 μM, Akt3/PKBγ 6 nM, ATP 100 μM (FIG. 5). The method, then:
Tet is the fluorescein dye 2′,7′,4,7-tetachloro-5-carboxy fluorescein.
(§1) Kinase assays were performed using Corning 384-well, black, non-binding surface (NBS), microwell plates. Fluorescence was read in real time using a […] Gemini XS plate reader, with excitation and emission set at 500 and 550 respectively. The plate was read every minute for one hour at ambient temperature
Concentrations of dye-labeled peptides were determined by dilution of the purified peptides into dimethylformamide (200 μL) with 1 M NaOH (5 μL) and measuring the absorbance of either 5-carboxy-2′,7′-dipyridyl-sulfonefluorescein (i.e. dye2) at its absorbance maximum (548 nm) or 2′,7′,4,7-tetachloro-5-carboxy fluorescein (i.e. 2′,7′-dichloro-5-carboxy-4,7-dichlorofluorescein or “tet”) at its absorbance maximum (541 nm). The extinction coefficient of both dyes was assumed to be 80,000 cm^−1M^−1.

The target in another data set is protein kinase p38βII (Homo sapiens, UniProt Q15759). The data set can be described thus: Fluorogenic kinase assay with p38βII, rates at varying ATP fitted to Michaelis-Menton equation. The settings on record: p38bII 14 nM; 20 mM Tris pH 7.4, MgCl2 5 mM, DTT 5 mM; read 1 hour; read-out: apparent Km of ATP. In kind it is biochemical.
Sequence of protein kinase p38βII (Q15759 whole entry): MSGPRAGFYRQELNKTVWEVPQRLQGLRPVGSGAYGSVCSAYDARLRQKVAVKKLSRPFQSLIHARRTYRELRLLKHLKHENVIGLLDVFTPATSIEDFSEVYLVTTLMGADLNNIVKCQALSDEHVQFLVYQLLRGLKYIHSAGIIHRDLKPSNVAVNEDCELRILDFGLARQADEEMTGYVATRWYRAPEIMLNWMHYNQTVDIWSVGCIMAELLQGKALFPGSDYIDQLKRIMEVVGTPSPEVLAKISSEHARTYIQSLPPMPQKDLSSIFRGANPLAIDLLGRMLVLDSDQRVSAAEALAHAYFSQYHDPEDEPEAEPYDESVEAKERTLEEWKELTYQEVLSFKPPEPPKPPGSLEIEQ
Source text: A comparison of the rates of reaction for a kinase substrate comprising two hydrophobic moieties (i.e. C12OOK(dye 2)RRIPLSPOOK(C12)NH2, (peptide disclosed as SEQ ID NO: 20) used at a concentration of 2 μm and referred to herein as compound 2) versus a kinase substrate comprising a single hydrophobic moiety (i.e.C16OOK(dye 2)[…]2, (peptide disclosed as SEQ ID NO: 20) used at a concentration of 4 μm; and referred to herein as compound 4) for several concentrations of ATP (0, 5, 10, 20, 50, 100, 200, and 500 μM) is shown in FIGS. 4A and 4B. […] The rates of the reaction were fitted to the Michaelis-Menton equation. […]
as §1
Concentrations of dye-labeled peptides were determined by dilution of the purified peptides into dimethylformamide (200 μL) with 1 M NaOH (5 μL) and measuring the absorbance of either 5-carboxy-2′,7′-dipyridyl-sulfonefluorescein (i.e. dye2) at its absorbance maximum (548 nm) or 2′,7′,4,7-tetachloro-5-carboxy fluorescein (i.e. 2′,7′-dichloro-5-carboxy-4,7-dichlorofluorescein or “tet”) at its absorbance maximum (541 nm). […]

Where no end group is shown, it is not given here. [ ]: non-standard residue; d: D form. K(dye 2) = not defined here; K(tet) = not defined here; Orn = NCCC[C@H](N)C(=O)O; C12 = C12 group (lipid); C11 = C11 lipid

Sequence of protein kinase Akt3/PKBγ (Q9Y243 whole entry): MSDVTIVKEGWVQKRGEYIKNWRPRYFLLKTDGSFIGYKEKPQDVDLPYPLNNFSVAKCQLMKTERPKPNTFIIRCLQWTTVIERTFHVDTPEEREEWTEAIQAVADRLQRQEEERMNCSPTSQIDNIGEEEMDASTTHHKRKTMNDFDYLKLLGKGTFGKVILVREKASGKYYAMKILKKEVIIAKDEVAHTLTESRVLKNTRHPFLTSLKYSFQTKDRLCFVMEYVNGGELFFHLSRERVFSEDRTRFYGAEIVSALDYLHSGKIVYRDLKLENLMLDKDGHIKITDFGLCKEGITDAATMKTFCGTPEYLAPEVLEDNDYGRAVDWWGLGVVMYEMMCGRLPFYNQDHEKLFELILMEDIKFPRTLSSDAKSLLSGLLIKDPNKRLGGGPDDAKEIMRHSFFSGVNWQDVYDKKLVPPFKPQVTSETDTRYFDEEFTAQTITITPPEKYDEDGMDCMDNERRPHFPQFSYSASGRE

Consider `N[C@@H](Cc1c[nH]cn1)C(=O)O` [Histidine (H), Histidine], for which, in data set [1], the pK entry is “about 7”.
Turning to “C11OOK(tet)ArgProArgThrSerSerPheOOK(C11)NH2 ({C11-Orn-Orn-K(tet)}-RPRTSSF[Orn][Orn]-{K(C11)-NH2}; not fully specified; printed as C11OOK(tet)ArgProArgThrSerSerPheOOK(C11)NH2; reading uncertain) [compound 3, kinase substrate for Akt3/PKBγ with two C11 hydrophobic moieties and tet dye]”, the “signal to noise ratio” value with protein kinase Akt3/PKBγ was “improved signal to noise ratio”.
The term Km denotes the concentration of substrate that gives half-maximal velocity. With “C12OOK(dye 2)ArgArgIleProLeuSerProOOK(C12)NH2 ({C12-Orn-Orn-K(dye 2)}-RRIPLSP[Orn][Orn]-{K(C12)-NH2}; not fully specified; printed as C12OOK(dye 2)ArgArgIleProLeuSerProOOK(C12)NH2; reading uncertain) [compound 2, kinase substrate for p38βII with two C12 hydrophobic moieties and Dye 2]”, the Km with protein kinase p38βII stood at 90 µM.
For “C16OOK(dye 2)RRIPLSPNH2 (RRIPLSP-NH2; not fully specified (N-terminus); printed as C16OOK(dye 2)RRIPLSPNH2) [compound 4, comparison kinase substrate with a single hydrophobic moiety]”, in the data set with protein kinase p38βII, the Km is greater than 200 µM.
